Where no end group is shown, it is not given here.
biological target: endoplasmic reticulum aminopeptidase 1 (UniProt Q9NZ08 1-941, limits assumed); assay: cell-based or functional assay; conditions: not given
Sequence (Q9NZ08 whole entry): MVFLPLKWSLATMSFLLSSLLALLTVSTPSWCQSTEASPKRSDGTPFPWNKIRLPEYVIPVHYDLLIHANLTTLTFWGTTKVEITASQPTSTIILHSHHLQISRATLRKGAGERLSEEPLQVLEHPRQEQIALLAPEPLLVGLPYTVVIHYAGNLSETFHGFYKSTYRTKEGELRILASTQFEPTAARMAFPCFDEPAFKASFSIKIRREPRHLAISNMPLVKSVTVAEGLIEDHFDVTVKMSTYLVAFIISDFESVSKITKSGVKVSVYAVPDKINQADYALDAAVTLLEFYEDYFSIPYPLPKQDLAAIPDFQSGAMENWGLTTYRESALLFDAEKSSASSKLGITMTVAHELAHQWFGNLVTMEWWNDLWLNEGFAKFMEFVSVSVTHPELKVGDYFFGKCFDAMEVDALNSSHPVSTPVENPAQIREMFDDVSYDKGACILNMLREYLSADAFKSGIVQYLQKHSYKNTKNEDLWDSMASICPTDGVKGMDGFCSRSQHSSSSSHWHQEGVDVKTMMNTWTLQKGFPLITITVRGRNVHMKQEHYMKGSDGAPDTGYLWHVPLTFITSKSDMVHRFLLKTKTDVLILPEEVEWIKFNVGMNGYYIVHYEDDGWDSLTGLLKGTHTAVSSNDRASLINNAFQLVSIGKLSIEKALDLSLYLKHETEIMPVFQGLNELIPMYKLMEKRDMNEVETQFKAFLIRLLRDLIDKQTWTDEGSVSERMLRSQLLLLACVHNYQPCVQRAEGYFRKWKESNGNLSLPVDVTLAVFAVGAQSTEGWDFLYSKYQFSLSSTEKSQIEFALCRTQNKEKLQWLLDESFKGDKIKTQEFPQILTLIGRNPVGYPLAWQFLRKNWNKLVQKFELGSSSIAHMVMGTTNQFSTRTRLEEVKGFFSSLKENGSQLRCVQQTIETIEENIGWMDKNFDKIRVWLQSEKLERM

Row | Molecule | Production Rate of SEQ ID NO: 4 [%]
1 | MCYTWNQMNL (also: TFA salt) [peptide MCYTWNQMNL (SEQ ID NO: 60)] | 32.1
2 | ICYTWNQMNL (also: TFA salt) [peptide ICYTWNQMNL (SEQ ID NO: 58)] | 2.8
3 | KCYTWNQMNL (also: TFA salt) [peptide KCYTWNQMNL (SEQ ID NO: 36)] | 45
4 | CCYTWNQMNL (cysteine pairing not given here; also: TFA salt) [peptide CCYTWNQMNL (SEQ ID NO: 10)] | 20.3
5 | HCYTWNQMNL (also: TFA salt) [peptide HCYTWNQMNL (SEQ ID NO: 34)] | 24.4
6 | FCYTWNQMNL (also: TFA salt) [peptide FCYTWNQMNL (SEQ ID NO: 38)] | 18.4
7 | ACYTWNQMNL (also: TFA salt) [peptide ACYTWNQMNL (SEQ ID NO: 55)] | 10
8 | LCYTWNQMNL (also: TFA salt) [peptide LCYTWNQMNL (SEQ ID NO: 59)] | 5.8
9 | ECYTWNQMNL (also: TFA salt) [peptide ECYTWNQMNL (SEQ ID NO: 32)] | 32.5

Other lines, results leading:

Row | Production Rate of SEQ ID NO: 4 [%] | Molecule
10 | 5.2 | WCYTWNQMNL (also: TFA salt) [peptide WCYTWNQMNL (SEQ ID NO: 66)]
11 | 32.5 | QCYTWNQMNL (also: TFA salt) [peptide QCYTWNQMNL (SEQ ID NO: 30)]
12 | 15.6 | TCYTWNQMNL (also: TFA salt) [peptide TCYTWNQMNL (SEQ ID NO: 64)]
13 | 29.1 | NCYTWNQMNL (also: TFA salt) [peptide NCYTWNQMNL (SEQ ID NO: 61)]
14 | 24.6 | SCYTWNQMNL (also: TFA salt) [peptide SCYTWNQMNL (SEQ ID NO: 63)]
15 | 11.1 | PCYTWNQMNL (also: TFA salt) [peptide PCYTWNQMNL (SEQ ID NO: 62)]
16 | 35.2 | YCYTWNQMNL (also: TFA salt) [peptide YCYTWNQMNL (SEQ ID NO: 40)]
17 | 49.2 | RCYTWNQMNL (also: TFA salt) [peptide RCYTWNQMNL (SEQ ID NO: 28)]
18 | 5.1 | VCYTWNQMNL (also: TFA salt) [peptide VCYTWNQMNL (SEQ ID NO: 65)]

test system: HLA-A*24:02 transgenic mouse; assay: In vivo CTL induction in HLA-A*24:02 transgenic mouse (IFNγ ELISPOT assay of splenocytes); conditions: peptide 280 μg per site, intradermal Montanide ISA 51 VG emulsion, two sites; one week after administration
Method: The HLA-A*24:02 transgenic mouse (C57BL/6CrHLA-A2402/K^b) is a mouse that expresses a chimeric HLA of a human MHC, HLA-A*24:02 with a mouse MHC, H-2K^b.
The solution was diluted with water for injection to a concentration of 10 mg/mL, and then converted to an emulsion by addition of an equal volume of Montanide ISA 51 VG. […] The concentrations of DMSO contained in emulsions were also fixed. One week after the administration, the mice were sacrificed with CO2 gas. Splenocytes were harvested from spleens removed from the mice. For detecting IFNγ-producing splenocytes, an IFNγ ELISPOT assay kit was used. In particular, an ELISPOT plate was treated with an anti-mouse-IFNγ antibody on the day before preparation of the splenocyte samples. On the next day, the plate was blocked by treatment with an RPMI 1640 medium with 10% FBS. To the blocked ELISPOT plate, the splenocyte samples from the HLA-A*24:02 transgenic mice were added at 2.5×10^5 cells/well. For in vitro stimulation of the cells, the peptide of SEQ ID NO: 4 was dissolved in DMSO at a concentration of 40 mg/ml, diluted with RPMI 1640 with 10% FBS to 40 μg/ml, and added to the splenocyte-containing wells at a final concentration of 10 μg/ml. The plate was incubated for 18-20 hours at 37° C. under an atmosphere of 5% CO2. Then, after removal of the culture medium from the wells, the ELISPOT plate was subjected to treatment for cell staining in accordance with the manufacturer's protocol. Stained spots were counted on ImmunoSpot S6 Analyzer (C.T.L.). […]

Row | Molecule | induction of CTLs responsive to the peptide of SEQ ID NO: 4 (IFNγ-producing splenocytes)
19 | ECYTWNQMNL [SEQ ID NO: 32] | induced CTLs responsive to the peptide of SEQ ID NO: 4
20 | FCYTWNQMNL [SEQ ID NO: 38] | induced CTLs responsive to the peptide of SEQ ID NO: 4
21 | HCYTWNQMNL [SEQ ID NO: 34] | induced CTLs responsive to the peptide of SEQ ID NO: 4
22 | KCYTWNQMNL [SEQ ID NO: 36] | induced CTLs responsive to the peptide of SEQ ID NO: 4
23 | QCYTWNQMNL [SEQ ID NO: 30] | induced CTLs responsive to the peptide of SEQ ID NO: 4
24 | RCYTWNQMNL [SEQ ID NO: 28] | induced CTLs responsive to the peptide of SEQ ID NO: 4
25 | YCYTWNQMNL [SEQ ID NO: 40] | induced CTLs responsive to the peptide of SEQ ID NO: 4

— patent US20210100886A1, “WT1 CANCER ANTIGEN PEPTIDES AND PEPTIDE CONJUGATES COMPRISING THE PEPTIDES” (SUMITOMO DAINIPPON PHARMA CO., LTD., priority 2017, published 2021)
